These results are taken from article PMC3111433.

The term stoichiometry N denotes a count of units in the complex or per binding partner.

The test addresses Francisella tularensis subsp. holarctica LVS 2-C-methyl-D-erythritol 4-phosphate cytidylyltransferase (Francisella tularensis subsp. holarctica LVS). Description: SEC. A general note: Size exclusion chromatography separates by hydrodynamic size, large species first.

In the case of “Francisella tularensis subsp. holarctica LVS 2-C-methyl-D-erythritol 4-phosphate cytidylyltransferase (enzyme)”, the stoichiometry N is 2.
